± gives the uncertainty stated by the source.

The data set is described as follows: self-splicing fitness, log relative to wild type (ln ratio); higher = more splicing; Tetrahymena group I intron in knt gene, E. coli kanamycin selection, DiMSum; sequences stand for … in CUCUCU…GGAGGGAAAAGUUAUCAGGCAUGCACCUGGUAGCUAGUCUUUAAACCAAUAGAUUGCAUCGGUUUAAAAGGCAAGACCGUCAAAUUGCGGGAAAGGGGUCAACAGCCGUUCAGUACCAAGUCUCAGGGGAAACUUUGAGAUGGCCUUGCAAAGGGUAUGGUAAUAAGCUGACGGACAUGGUCCUAACCACGCAGCCAAGUCCUAAGUCAACAGAUCUUCUGUUGAUAUGGAUGCAGUUCACAGACUAAAUGUCGGUCGGGGAAGAUGUAUUCUUCUCAUAAGAUAUAGUCGGACCUCUCCUUAAUGGGAGCUAGCGGAUGAAGUGAUGCAACACUGGAGCCGCUGGGAACUAAUUUGUAUGCGAAAGUAUAUUGAUUAGUUUUGGAGUACUCGUGGUCG
The gist of the method:
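Library with all eight P1ex-region intron nucleotides randomised, intron inside the knt kanamycin-resistance gene on pET-22b(+), in E. coli BL21(DE3). Cells grew overnight at 37°C or 30°C on LB agar with or without 25 μg/mL kanamycin (plus 100 μg/mL carbenicillin, 50 μM IPTG, 0.2% rhamnose), in six replicate transformations. Pooled colonies were amplicon-sequenced on Illumina HiSeq 2500. DiMSum fitness is the error-weighted combination of wild-type-normalised replicate fold changes, kanamycin versus none.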

Consider AACGAGCAAUAUUACGUGGG, for which the “self-splicing fitness (ln)” value runs as follows: (30 °C) -3.94 ± 0.15; (37 °C) -2.7 ± 0.12.
AACGAGCAAUAUUACGUUCG: the “self-splicing fitness (ln)” value (30 °C) was -3 ± 0.48 and the “self-splicing fitness (ln)” value (37 °C) is -1.19 ± 0.2.
The corresponding values for AACUAGCAAUAUUACGAAUC are -2.81 ± 0.17 and -1.27 ± 0.19.
As for AACUAGCAAUAUUACGACAA, the “self-splicing fitness (ln)” value is -0.829 ± 0.064 (30 °C) and -0.603 ± 0.066 (37 °C).
Consider AACUAGCAAUAUUACGACAU, for which the “self-splicing fitness (ln)” value reads like this: (30 °C) -0.187 ± 0.011; (37 °C) 0.0705 ± 0.032.
As for AACUAGCAAUAUUACGAGAA, the “self-splicing fitness (ln)” value reads like this: (30 °C) -2.64 ± 0.48; (37 °C) -1.71 ± 0.22.
Take AACUAGCAAUAUUACGAGGG: the “self-splicing fitness (ln)” value is -2.13 ± 0.12 (30 °C) and -2.24 ± 0.19 (37 °C).
Take AACUAGCAAUAUUACGAGGU: the “self-splicing fitness (ln)” value by setting is: (30 °C) -3.14 ± 0.3; (37 °C) -2.01 ± 0.25.
Turning to AACUAGCAAUAUUACGAUAA, the “self-splicing fitness (ln)” value (30 °C) was -1.41 ± 0.099 and the “self-splicing fitness (ln)” value (37 °C) was -0.94 ± 0.099.
In the case of AACUAGCAAUAUUACGAUGA, the “self-splicing fitness (ln)” value (30 °C) was -0.741 ± 0.079 and the “self-splicing fitness (ln)” value (37 °C) was -0.0286 ± 0.08.
For AACUAGCAAUAUUACGCCCU, in that order: 0.324 ± 0.067 and -0.165 ± 0.08.
Turning to AACUAGCAAUAUUACGCCUC, the “self-splicing fitness (ln)” value (30 °C) is -2.29 ± 0.3 and the “self-splicing fitness (ln)” value (37 °C) was -0.975 ± 0.24.
Turning to AACUAGCAAUAUUACGCGCA, the “self-splicing fitness (ln)” value reads like this: (30 °C) -0.47 ± 0.099; (37 °C) 0.116 ± 0.12.
For the sequence AACUAGCAAUAUUACGGACG, the “self-splicing fitness (ln)” value (30 °C) is -1.21 ± 0.06 and the “self-splicing fitness (ln)” value (37 °C) was -0.904 ± 0.072.
Take AACUAGCAAUAUUACGGAGA: the “self-splicing fitness (ln)” value is, setting by setting: (30 °C) -2.62 ± 0.23; (37 °C) -1.35 ± 0.2.
Consider AACUAGCAAUAUUACGGAGU, for which the “self-splicing fitness (ln)” value (30 °C) is -2.95 ± 0.13 and the “self-splicing fitness (ln)” value (37 °C) was -1.42 ± 0.13.
With AACUAGCAAUAUUACGGGAG, the “self-splicing fitness (ln)” value is, setting by setting: (30 °C) -1.35 ± 0.11; (37 °C) -1.21 ± 0.13.
The corresponding values for AACUAGCAAUAUUACGGGCC are -1.81 ± 0.12 and -1.36 ± 0.14.
Turning to AACUAGCAAUAUUACGGGUU, the “self-splicing fitness (ln)” value reads like this: (30 °C) -3.03 ± 0.12; (37 °C) -2.82 ± 0.17.
As for AACUAGCAAUAUUACGGUAC, the “self-splicing fitness (ln)” value was -3.39 ± 0.28 (30 °C) and -1.9 ± 0.17 (37 °C).
Take AACUAGCAAUAUUACGGUCC: the “self-splicing fitness (ln)” value (30 °C) is -0.628 ± 0.13 and the “self-splicing fitness (ln)” value (37 °C) was -0.637 ± 0.15.
The corresponding values for AACUAGCAAUAUUACGGUGG are -2.14 ± 0.079 and -0.926 ± 0.086.
Regarding AACUAGCAAUAUUACGGUUC, the “self-splicing fitness (ln)” value (30 °C) is -4.49 ± 0.24 and the “self-splicing fitness (ln)” value (37 °C) was -2.94 ± 0.21.
As for AACUAGCAAUAUUACGUAGG, the “self-splicing fitness (ln)” value was -2.36 ± 0.11 (30 °C) and -1.29 ± 0.12 (37 °C).
On to AACUAGCAAUAUUACGUCUG, for which the “self-splicing fitness (ln)” value was -1.86 ± 0.088 (30 °C) and -1.37 ± 0.088 (37 °C).
On to AACUAGCAAUAUUACGUGAU, for which the “self-splicing fitness (ln)” value was -1.71 ± 0.11 (30 °C) and -1.09 ± 0.13 (37 °C).
The corresponding values for AACUAGCAAUAUUACGUGUG are -1.47 ± 0.051 and -0.869 ± 0.067.
Consider AACUAGCAAUAUUACGUUUA, for which the “self-splicing fitness (ln)” value is -1.98 ± 0.11 (30 °C) and -1.1 ± 0.11 (37 °C).
The corresponding values for AAGAAGCAAUAUUACGAACC are -0.581 ± 0.14 and -0.25 ± 0.17.
For the sequence AAGAAGCAAUAUUACGACCG, the “self-splicing fitness (ln)” value was -1.05 ± 0.088 (30 °C) and 0.483 ± 0.14 (37 °C).
AAGAAGCAAUAUUACGACUG: the “self-splicing fitness (ln)” value was -0.231 ± 0.089 (30 °C) and 0.323 ± 0.16 (37 °C).
Regarding AAGAAGCAAUAUUACGAGGA, the “self-splicing fitness (ln)” value runs as follows: (30 °C) -3.43 ± 0.28; (37 °C) -2.98 ± 0.3.
The corresponding values for AAGAAGCAAUAUUACGAGUU are -1.15 ± 0.079 and -0.169 ± 0.11.
Turning to AAGAAGCAAUAUUACGAUAC, the “self-splicing fitness (ln)” value (30 °C) is -2.94 ± 0.19 and the “self-splicing fitness (ln)” value (37 °C) is -1.31 ± 0.17.
Take AAGAAGCAAUAUUACGAUCC: the “self-splicing fitness (ln)” value by setting is: (30 °C) -0.553 ± 0.14; (37 °C) -0.745 ± 0.18.
For AAGAAGCAAUAUUACGAUCU, in that order: 0.00748 ± 0.089 and -0.373 ± 0.11.
AAGAAGCAAUAUUACGAUGG: the “self-splicing fitness (ln)” value is -1.93 ± 0.14 (30 °C) and -2 ± 0.22 (37 °C).
Consider AAGAAGCAAUAUUACGAUUG, for which the “self-splicing fitness (ln)” value is -2.85 ± 0.26 (30 °C) and -1.78 ± 0.19 (37 °C).
The corresponding values for AAGAAGCAAUAUUACGCAGC are -3.17 ± 0.38 and -2.12 ± 0.22.
Regarding AAGAAGCAAUAUUACGCAUC, the “self-splicing fitness (ln)” value is, setting by setting: (30 °C) -1.92 ± 0.22; (37 °C) -0.986 ± 0.2.
With AAGAAGCAAUAUUACGCCCG, the “self-splicing fitness (ln)” value is -0.579 ± 0.18 (30 °C) and -1.38 ± 0.23 (37 °C).
As for AAGAAGCAAUAUUACGCUCA, the “self-splicing fitness (ln)” value was -0.0265 ± 0.13 (30 °C) and -0.132 ± 0.12 (37 °C).
On to AAGAAGCAAUAUUACGCUUA, for which the “self-splicing fitness (ln)” value is -1.05 ± 0.12 (30 °C) and -0.977 ± 0.13 (37 °C).
Regarding AAGAAGCAAUAUUACGGCUA, the “self-splicing fitness (ln)” value by setting is: (30 °C) -0.552 ± 0.077; (37 °C) -0.0286 ± 0.1.
On to AAGAAGCAAUAUUACGGUAC, for which the “self-splicing fitness (ln)” value is -2.37 ± 0.19 (30 °C) and -2.96 ± 0.33 (37 °C).
For AAGAAGCAAUAUUACGGUCA, in that order: -0.625 ± 0.088 and 0.197 ± 0.1.
Regarding AAGAAGCAAUAUUACGUACA, the “self-splicing fitness (ln)” value (30 °C) is -0.642 ± 0.1 and the “self-splicing fitness (ln)” value (37 °C) is -0.0821 ± 0.12.
Regarding AAGAAGCAAUAUUACGUAUG, the “self-splicing fitness (ln)” value was -1.93 ± 0.11 (30 °C) and -1.14 ± 0.1 (37 °C).
On to AAGAAGCAAUAUUACGUCGG, for which the “self-splicing fitness (ln)” value is, setting by setting: (30 °C) -0.907 ± 0.12; (37 °C) -1.02 ± 0.14.
The corresponding values for AAGAAGCAAUAUUACGUGCC are -1.01 ± 0.11 and -1.14 ± 0.11.
For the sequence AAGAAGCAAUAUUACGUUUC, the “self-splicing fitness (ln)” value by setting is: (30 °C) -3.62 ± 0.23; (37 °C) -3.15 ± 0.26.
AAGCAGCAAUAUUACGAAGG: the “self-splicing fitness (ln)” value is, setting by setting: (30 °C) -2.99 ± 0.16; (37 °C) -3.01 ± 0.26.
On to AAGCAGCAAUAUUACGAGAC, for which the “self-splicing fitness (ln)” value (37 °C) was -0.225 ± 0.15.
With AAGCAGCAAUAUUACGAUUC, the “self-splicing fitness (ln)” value was -1.73 ± 0.081 (30 °C) and -0.707 ± 0.092 (37 °C).
With AAGCAGCAAUAUUACGCCAA, the “self-splicing fitness (ln)” value is -2.31 ± 0.21 (30 °C) and -2.04 ± 0.21 (37 °C).
Consider AAGCAGCAAUAUUACGCGGG, for which the “self-splicing fitness (ln)” value is, setting by setting: (30 °C) -1.43 ± 0.078; (37 °C) -1.27 ± 0.1.
For the sequence AAGCAGCAAUAUUACGCGUG, the “self-splicing fitness (ln)” value was -3.76 ± 0.14 (30 °C) and -2.25 ± 0.11 (37 °C).
The corresponding values for AAGCAGCAAUAUUACGCUCG are -1.67 ± 0.15 and 0.286 ± 0.14.
As to AAGCAGCAAUAUUACGGCCA, the “self-splicing fitness (ln)” value is, setting by setting: (30 °C) -0.775 ± 0.18; (37 °C) 0.116 ± 0.25.
The corresponding values for AAGCAGCAAUAUUACGGCCG are -0.9 ± 0.11 and -0.057 ± 0.17.
For AAGCAGCAAUAUUACGGCCU, in that order: -0.182 ± 0.057 and 0.636 ± 0.074.
For AAGCAGCAAUAUUACGGGCG, the “self-splicing fitness (ln)” value is, setting by setting: (30 °C) -0.645 ± 0.065; (37 °C) -0.638 ± 0.099.
AAGCAGCAAUAUUACGGUGA: the “self-splicing fitness (ln)” value (30 °C) was -0.827 ± 0.1 and the “self-splicing fitness (ln)” value (37 °C) is -1.15 ± 0.092.
For AAGCAGCAAUAUUACGUAGC, in that order: -3.19 ± 0.15 and -1.94 ± 0.16.
The corresponding values for AAGCAGCAAUAUUACGUAUA are -2.85 ± 0.19 and -2.69 ± 0.19.
Consider AAGCAGCAAUAUUACGUCGC, for which the “self-splicing fitness (ln)” value by setting is: (30 °C) -2.95 ± 0.19; (37 °C) -2.51 ± 0.31.
As for AAGCAGCAAUAUUACGUCGU, the “self-splicing fitness (ln)” value is, setting by setting: (30 °C) -2.51 ± 0.095; (37 °C) -0.636 ± 0.12.
The corresponding values for AAGCAGCAAUAUUACGUCUG are -4.47 ± 0.37 and -1.72 ± 0.26.
As for AAGCAGCAAUAUUACGUGAU, the “self-splicing fitness (ln)” value was -2.39 ± 0.081 (30 °C) and -1.49 ± 0.11 (37 °C).
Turning to AAGCAGCAAUAUUACGUGGU, the “self-splicing fitness (ln)” value (30 °C) is -4.16 ± 0.2 and the “self-splicing fitness (ln)” value (37 °C) is -1.27 ± 0.11.
With AAGCAGCAAUAUUACGUUAA, the “self-splicing fitness (ln)” value is -1.76 ± 0.12 (30 °C) and -2.14 ± 0.14 (37 °C).
For AAGGAGCAAUAUUACGAAUA, in that order: -2.18 ± 0.27 and -2.77 ± 0.38.
Turning to AAGGAGCAAUAUUACGACGA, the “self-splicing fitness (ln)” value reads like this: (30 °C) -1.94 ± 0.15; (37 °C) -0.382 ± 0.11.
On to AAGGAGCAAUAUUACGAGGC, for which the “self-splicing fitness (ln)” value was -2.89 ± 0.17 (30 °C) and -2.41 ± 0.44 (37 °C).
As for AAGGAGCAAUAUUACGAUGG, the “self-splicing fitness (ln)” value is -3.59 ± 0.27 (30 °C) and -2.11 ± 0.23 (37 °C).

For the origin of these results see the supplement of paper PMC7877785.
